# Data as given in PMC7916210, “Identification of Novel phoP-phoQ Regulated Genes that Contribute to Polymyxin B Tolerance in Pseudomonas aeruginosa”.
# B1: PPA14_11970 promoter probe (dsDNA)
# DNA 1: TGTCTTTGTAACAGGAAATCCTCGATGTTCAGTCCGAAACCGAGCTGCGCGCCCCAGTTG
# DNA 2: CAACTGGGGCGCGCAGCTCGGTTTCGGACTGAACATCGAGGATTTCCTGTTACAAAGACA
# B2: PPA14_52350 promoter probe (dsDNA)
# DNA 1: CATTTGCTGGTGTTCGTTCAGCGATGGTTCAGCTTGCCGTGGGCATAGTGGCGGCTTGCA
# DNA 2: TGCAAGCCGCCACTATGCCCACGGCAAGCTGAACCATCGCTGAACGAACACCAGCAAATG
# B3: PPA14_50740 promoter probe (dsDNA)
# DNA 1: AATCGATTCAGCAATGGTACAGGTTCGTTCAGTTTCGACCGAACCCTCCCGCTTTCATCG
# DNA 2: CGATGAAAGCGGGAGGGTTCGGTCGAAACTGAACGAACCTGTACCATTGCTGAATCGATT
# B4: PPA14_46900 promoter probe (dsDNA)
# DNA 1: GGTTCGTTCAGAAATTGTTCAGGCTTCGTTCAGGCCCGATTCAGGCCGGGTTCAGCAGAA
# DNA 2: TTCTGCTGAACCCGGCCTGAATCGGGCCTGAACGAAGCCTGAACAATTTCTGAACGAACC
# Target: PhoP-His (UniProt A0A0H2Z7U0 1-225)
# Assay: EMSA; PhoP 0, 2, 4 or 8 uM
# Settings: protein: recombinant; tags: C-terminal 6xHis; chain copies: 2; blunt
row,Binder,binding result
1,B1,binds
2,B2,binds
3,B3,binds
4,B4,binds
